Measurements as given in US20090252681A1 (Ablynx, published 2009).

B1: PMP7E12 (VHH)
VHH: EVQLVESGGGLVQAGGSLRLSCTASGRTFENNAMAWFRQAAGKEREFVAGFSGSGGATYYAHSVEGRFTISRDNAKNTVDLQMNSLSLEDTAVYLCAARRKSGEVVFTIPARYDYWGQGTQVTVSS
B2: 27-1-H7 (VHH)
VHH: EVQLVESGGGLVQAGGSLRLSCAASGRGAWAWFRQAPGKEREFVGGLSWSADSTYYADSVKGRFTISRDNAKNTVFLQMTNLKADDTAVYYCAAHRRPFASVFTTTRMYDYWGPGTQVTVSS
B3: 27-10-E8 (VHH)
VHH: EVQLVESGGGLVQAGGSLRLSCAASGRTFSTYTMAWFRQAPGKEREFVQGISRSDGGTYDADSVKGRFTISRDNAKNTVYLQMNSLKPEDTAVYFCAAASVKLVYVNPNRYSYWGQGTQVTVSS
notes: anti-EGFR Nanobody; tested as periplasmic extract or IMAC purified soluble Nanobody, tag not described; also called EGR 27-10-E8
B4: PMP1C7 (VHH)
VHH: QVKLEESGGGLVQAGGSLRLSCVASGRTFSRTAMAWFRQAPGKEREFVATITWNSGTTRYADSVKGRFFISKDSAKNTIYLEMNSLEPEDTAVYYCAATAAAVITPTRGYYNYWGQGTQVTVSS
notes: anti-IGF-IR Nanobody; tag not described; also called IGR PMP1C7
B5: PMP8C7 (VHH)
VHH: QVKLEESGGGLVQAGGSLRLSCAASGRAFSSYVMGWFRQAPGKEREIVGAISWRGGSTYYADSVKGRFTISRDNAKNTVYLQMNSLKPEDTAVYYCAAVYRVGAISEYSGTDYYTDEYDYWGQGTQVTVSS
notes: also called EGR PMP8C7
B6: PMP9C1 (VHH)
VHH: EVQLVESGGGLVQAGGSLRLSCAASGRTFSGFAMGWFRQAPGKEREFVAAISWSGGSLLYVDSVKGRFTISRDNAKNTVHLQMNSLKPGDTAVYYCAAMVGPPPRSLDYGLGNHYEYDYWGQGTQVTVSS
B7: PMP38G7 (VHH)
VHH: EVQLVESGGGLVQAGGSLRLSCAASGRTFSSYVMGWFRQATGKEREFVATIAWDSGSTYYADSVKGRFTISRDNAKNTVHLQMNSLKPEDTAVYYCAASYNVYYNNYYYPISRDEYDYWGQGTQVTVSS
notes: also called EGR PMP38G7
B8: PMP7A5 (VHH)
VHH: EVQLVESGGGLVQAGGSLRLSCAASDRTFSSNNMGWFRQAPGKEREFVAAIGWGGLETHYSDSVKGRFTISRDNAKNTVYLQMNSLKPEDTARYYCAVSSTRTVIYTLPRMYNYWGQGTQVTVSS

Tests used:
[1] = target: T1, purified EGFR (Sigma) (human, UniProt P00533 25-1210, limits assumed)
T1 construct: native receptor purified from A431 cells; also called solid phase coated EGFR

[2] = target: T2, EGFR on A431 derived membrane vesicles (human, UniProt P00533 25-1210)
T2 construct: whole, on cells; presented in membrane vesicles coated on ELISA plates, not on intact cells; also called EGFR harboring A431 vesicles; EGFR expressing A431 vesicles

[3] = target: T3, Recombinant human IGF-IR (human, UniProt P08069 31-932); test: SPR (BIAcore), immobilized IGF-IR
T3 construct: bought; also called rhIGFIR; rhIGF-IR

[4] = target: T4, cell surface expressed EGFR (human, UniProt P00533 25-1210)
T4 construct: whole, on cells; also called EGFR on A431 tumor cells; EGFR on HER14 cells

Binder | koff [1] [s⁻¹] | other results
B1 | 0.0015 | –
B2 | 0.0031 | –
B3 | 0.0017 | IC50 (read off the curve) [2]: ~0.9 nM
B4 | – | koff [3]: 0.0019 s⁻¹
B5 | – | binding result [2]: binds
B6 | – | binding result [4]: binds; binding result [2]: binds
B7 | 0.00017 | –
B8 | 0.0015 | –
